Experiments:
Format in all cases: in vivo, healthy subjects (human)
[1] = Pharmacokinetics of plasma insulin after a single subcutaneous dose; conditions: healthy subjects, single 0.3 IU/kg s.c., PP population, median
[2] = test system: blood glucose (glucose infusion rate); assay: Automated euglycaemic glucose clamp; conditions: healthy subjects; single 0.3 IU/kg s.c.; PP population; median, N=39/38
[3] = Safety assessments; conditions: single 0.3 IU/kg s.c.

Humulin‐R: US‐approved reference regular recombinant human insulin product (Eli Lilly and Company)
λz (terminal elimination rate constant of insulin) ([1]; N=40/41): 0.5373 h⁻¹ | t50%‐ins(late) ([1]; N=41): 6.23 h | t50%‐GIR(early) [2]: 1.33 h | t50%‐GIR(late) [2]: 7.03 h | tGIR.max (time to maximum glucose infusion rate) [2]: 4.15 h | tolerability ([3]; healthy subjects): generally well tolerated | headache (number of events) ([3]; safety analysis set): eight | injection‐site reactions (number of AEs) ([3]; safety analysis set): four | subjects with headache ([3]; safety analysis set): eight | subjects with injection‐site reactions ([3]; safety analysis set): three

— PMC9303355 (Diabetes, Obesity & Metabolism, 2022)
